Experimental findings from article PMC8302766 are described below.

What all share (conditions): domain or fragment, No outside chemistry for unlabelled SAXS/AUC samples. Limits are not given, convention is residues 186-320 of short isoform A1-A (isoform B insert 252-303 absent). The hexapeptide 259-264 (311-316 in P09651) is taken as deleted because the printed 7.5 mg/mL = 0.598 mM gives about 12.54 kDa, which fits the delta-hexa form plus an assumed N-terminal GS cleavage scar (about 12.53 kDa), modification not given

Test [1] has as its target low-complexity domain of hnRNPA1 (A1-LCD). Description: AUC; two-step isodesmic model, KD2 (later steps), 50 mM NaCl.
The target is the same in test [2]. Description: AUC; isodesmic model, 50 mM NaCl.
Test [3] has the same target. The test is described as follows: AUC; two-step isodesmic model, KD1 (first step), 50 mM NaCl.

B1: low-complexity domain of hnRNPA1 (A1-LCD) (protein)
chain: MASASSSQRGRSGSGNFGGGRGGGFGGNDNFGRGGNFSGRGGFGGSRGGGGYGGSGDGYNGFGNDGSNFGGGGNYNNQSSNFGPMKGGNFGGRSSGPYGGGGQYFAKPRNQGGYGGSSSSSSYGSGRRF
B1: the Kd in test [1] was determined as 2.2 mM; in test [2], 3 mM; in test [3], 5.4 mM.

By Kd is commonly meant the equilibrium constant for the complex coming apart.
